The target of series [1] is Rpa heterotrimer (Rpa70/Rpa32/Rpa14) (Mus musculus) (UniProt Q8VEE4+Q62193+Q9CQ71). The experiment in a line: bead pull-down. The note with it: Dna2 D278A added after Rpa loading; EMSA: 20 mM Tris-HCl pH 8.0, 80 mM NaCl, 0.3 mM TCEP, 0.2 mg/mL BSA, 2% glycerol, on ice 30 min, 0.075 or 0.3 nM 32P-DNA; 4% native PAGE, 1x TB, 4 C. Background: In EMSA bound probe runs differently from free probe, usually more slowly.

Series [2] addresses mouse Rpa heterotrimer (Rpa70, Rpa32, Rpa14) (mouse) (UniProt Q8VEE4).

Rpa heterotrimer (Rpa70/Rpa32/Rpa14) (Mus musculus), sequence (Q8VEE4 whole entry, chain 1 of 3): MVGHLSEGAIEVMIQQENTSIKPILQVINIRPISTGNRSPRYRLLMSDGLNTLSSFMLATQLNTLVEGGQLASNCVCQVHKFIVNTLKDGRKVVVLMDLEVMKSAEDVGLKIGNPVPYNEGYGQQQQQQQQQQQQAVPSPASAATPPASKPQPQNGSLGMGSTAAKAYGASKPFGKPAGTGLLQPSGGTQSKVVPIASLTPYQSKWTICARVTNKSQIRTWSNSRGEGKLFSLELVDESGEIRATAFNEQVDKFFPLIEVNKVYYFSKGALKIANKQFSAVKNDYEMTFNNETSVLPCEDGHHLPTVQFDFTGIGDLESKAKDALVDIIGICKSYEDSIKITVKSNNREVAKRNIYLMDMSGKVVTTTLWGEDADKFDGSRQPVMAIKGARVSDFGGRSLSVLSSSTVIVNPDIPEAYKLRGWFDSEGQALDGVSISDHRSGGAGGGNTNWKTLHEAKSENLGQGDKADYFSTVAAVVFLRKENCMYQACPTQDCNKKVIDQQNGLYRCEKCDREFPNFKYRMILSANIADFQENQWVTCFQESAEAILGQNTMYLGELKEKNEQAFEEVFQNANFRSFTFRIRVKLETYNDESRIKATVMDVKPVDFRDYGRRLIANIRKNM
Rpa heterotrimer (Rpa70/Rpa32/Rpa14) (Mus musculus), sequence (Q62193 whole entry, chain 2 of 3): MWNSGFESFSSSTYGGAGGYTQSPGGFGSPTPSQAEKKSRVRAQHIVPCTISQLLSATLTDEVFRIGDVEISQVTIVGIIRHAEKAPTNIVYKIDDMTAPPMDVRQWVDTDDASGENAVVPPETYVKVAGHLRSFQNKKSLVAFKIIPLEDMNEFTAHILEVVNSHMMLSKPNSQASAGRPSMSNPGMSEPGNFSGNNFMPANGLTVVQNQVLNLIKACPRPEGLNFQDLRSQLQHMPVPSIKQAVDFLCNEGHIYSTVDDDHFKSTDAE
Rpa heterotrimer (Rpa70/Rpa32/Rpa14) (Mus musculus), sequence (Q9CQ71 whole entry, chain 3 of 3): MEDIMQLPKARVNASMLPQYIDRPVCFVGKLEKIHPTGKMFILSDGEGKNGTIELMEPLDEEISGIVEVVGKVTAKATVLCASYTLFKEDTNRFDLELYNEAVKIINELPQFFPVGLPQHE
α1-deleted mouse Dna2, sequence (Q6ZQJ5 1-1056, stated change not applied): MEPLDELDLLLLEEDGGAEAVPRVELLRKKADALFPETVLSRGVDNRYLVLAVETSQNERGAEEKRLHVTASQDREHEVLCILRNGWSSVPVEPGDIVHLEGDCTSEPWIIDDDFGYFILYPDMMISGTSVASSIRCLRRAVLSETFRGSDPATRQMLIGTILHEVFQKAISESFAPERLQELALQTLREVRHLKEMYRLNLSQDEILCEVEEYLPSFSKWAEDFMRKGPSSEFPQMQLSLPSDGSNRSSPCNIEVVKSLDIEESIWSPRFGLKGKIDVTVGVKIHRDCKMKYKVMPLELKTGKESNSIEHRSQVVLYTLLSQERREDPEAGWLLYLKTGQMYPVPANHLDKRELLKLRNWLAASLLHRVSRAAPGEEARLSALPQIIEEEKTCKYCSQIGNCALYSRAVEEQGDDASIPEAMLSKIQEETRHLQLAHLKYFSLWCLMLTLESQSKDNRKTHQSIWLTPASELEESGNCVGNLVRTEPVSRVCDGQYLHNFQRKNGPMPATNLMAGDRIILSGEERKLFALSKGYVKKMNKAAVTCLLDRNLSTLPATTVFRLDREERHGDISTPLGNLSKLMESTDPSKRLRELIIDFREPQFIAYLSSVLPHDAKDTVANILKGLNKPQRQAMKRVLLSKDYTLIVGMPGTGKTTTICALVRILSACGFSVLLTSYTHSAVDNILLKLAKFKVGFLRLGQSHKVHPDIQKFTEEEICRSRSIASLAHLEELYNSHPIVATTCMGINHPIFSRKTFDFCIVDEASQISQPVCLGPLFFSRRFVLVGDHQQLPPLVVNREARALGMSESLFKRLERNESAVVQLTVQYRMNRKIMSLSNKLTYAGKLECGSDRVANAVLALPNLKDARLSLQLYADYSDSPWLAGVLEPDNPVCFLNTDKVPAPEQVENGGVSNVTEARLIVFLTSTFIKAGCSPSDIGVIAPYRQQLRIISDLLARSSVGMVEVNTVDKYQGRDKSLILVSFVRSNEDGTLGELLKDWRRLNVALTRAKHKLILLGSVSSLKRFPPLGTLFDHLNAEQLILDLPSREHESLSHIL
mouse Rpa heterotrimer (Rpa70, Rpa32, Rpa14) (mouse), sequence (Q8VEE4 whole entry, chain 1 of 3): as the sequence (Q8VEE4 whole entry, chain 1 of 3) above
mouse Rpa heterotrimer (Rpa70, Rpa32, Rpa14) (mouse), sequence (Q62193 whole entry, chain 2 of 3, further chain): as the sequence (Q62193 whole entry, chain 2 of 3) above
mouse Rpa heterotrimer (Rpa70, Rpa32, Rpa14) (mouse), sequence (Q9CQ71 whole entry, chain 3 of 3, further chain): as the sequence (Q9CQ71 whole entry, chain 3 of 3) above

Regarding 3'-(dT)26 overhang DNA, biotinylated, the binding signal (% reduction of bound Rpa by Dna2 D278A) in series [1] came to 5. 5'-(dT)26 overhang DNA, biotinylated came in with a binding signal (% reduction of bound Rpa by Dna2 D278A) in series [1] of 30. For the substance “α1-deleted mouse Dna2 (from UniProt Q6ZQJ5 1-1056) (enzyme)”, the nuclease activity: cleavage of the Rpa-coated 5’ stem-loop overhang substrate 5’SL24 (15 nM, 15 nM Rpa), fold reduction compared to intact Dna2 in series [2] worked out at 2 fold.

The values above are taken from publication PMC4716839.
